Measurements reported in the DeepSol protein solubility set.

Experiment: soluble on expression in E. coli; label from the status in PepcDB or PDB records

Sequence | soluble on expression in E. coli
MPYLIIEHLEKISEWLLLEYRHTAQWWGDKLIFTNVKEPEERKILAEIGSVVAESVTKLPFDKSKLIILDPFAEEELKPEDIEEDSLIVVGGILGDFEFTGKTKEFITSKIEGAKARHIGSVQFSIDGASIIAKLISEGKRLEEIEYVESPTIKLDEFSEITLHYAVPKVNGKLLLTPGLIELQKKELGYMEEDVEDEELEKLFGGSLEHHHHHH | soluble
MEIIKISPRGYCYGVIDAMVIAKNASLDPNLPRPIHILGMIVHNKHVTDAFESIGIYTVDGANREEILDKITTGTVIFTAHGVSPSVKAKAVAKGLTTIDATCPDVLHTYNLILEKQAAGYEIIYIGKKGHPEPEGAYGTAPDVVHLVETKADIDALSLLSDKIFVTNQTTMSKWDVADLMHYIKGKFPKAIQHQEICMATQVRQEAVALQAKDADLTIVVGDPRSNNTARLAQVSIEKAGTKAYRIADITELDIEWIKDAKKVAVTAGASTPTQLVREVLLFLEQFDAADKTTWKREHNQDFERILPKTKNKYMAEKRSQRLAHLKNGGSLEHHHHHH | not soluble
MSRSRQPPLVTGISPNEGIPWTKVTIRGENLGTGPTDLIGLTICGHNCLLTAEWMSASKIVCRVGQAKNDKGDIIVTTKSGGRGTSTVSFKLLKPEKIG | soluble
MSLDKLQRISEAIKSKKKLVVMFSGGVDSTLLAKLAREVLGKNAVALTIDSPVIPRKEIEEAKNLANLIGIRHEFIELNELKSRHLIENPPDRCYLCRKLRDNIVKNWARENGFDVIADGLNFSDLQDYRPGVKASTEDGIWHPFIDFEVTKEEIREYSKKLGLPTWDKPAMACLCSRFPYGFGLNEERVRMVEKAENFLRELGFREVRVRFFPYKTAVVEVGRDEMELLMGKRTDIVLALQKIGFSFVTLDLEGFASGKLNRTIEGMSKEGGSHHHHHH | soluble
CTCSPSHPQDAFCNSDIVIRAKVVGKKLVKEGPFGTLVYTIKQMKMYRGFTKMPHVQYIHTEASESLCGLKLEVNKYQYLLTGRVYDGKMYTGLCNFVERWDQLTLSQRKGLNYRYHLGCN | soluble
MKQFNLIATSGQGIEALVAKELNNLGYQTRTENGFVRFSGNQRDILKTNIWLRTADRIKILVGEFHTLRFDDLFESVKALPWSELINWDDQFPVMEAHSRDSQLFSVPDIQRITKKAIVEALRSQTGHEDLPETGKHVGIDIRIDKNNVRIMIDTSGESLFKRGYRTEHGGAPLKENFAAALVLLTNWFTDNPFVDPVCGSGTIPIEAALIGKNIAPGINRTFEIESWAWFDKKLSQDVREEADILAKYDQPLDISGYDIDGNMIRISKENAKKAGLYNDIAFKQLAVKDWQTDKINGILVANPPYGQRLGEIEDARQIYQQMGSIYNQMSTWSKYILTSDEKFEQFYGKKATKKRKLYNGPIRTDLYQYWGKKVR | not soluble
MVAGNSAHEMVSILNQNRTARKLGKLNESPGLGCMALQYVELCEGNCNVNNTLSCEHPEDDFTQVFAPNCGVELPTFGTITGHILGCSSKYAAPEVAFSDILFRDSSALSVLRNRSHTEVGVGMARLHKGTFFWCLLFSDGVKNSSFVLEDNGRGIKQRTGCYSGSAFPCSSNAHMICMRLLNSFLGLLFSSFCLFEKHLKF | soluble
MVEVVSVREHDRWRGVYVVELEDGSLRIATKNLVPGQRVYGERIFRYNGEEYREWNAYRSKLAAALLKGLIELPVKEGDRILYLGIASGTTASHMSDIIGPRGRIYGVEFAPRVMRDLLTVVRDRRNIFPILGDARFPEKYRHLVEGVDGLYADVAQPEQAAIVVRNARFFLRDGGYMLMAIKARSIDVTTEPSEVYKREIKTLMDGGLEIKDVVHLDPFDRDHAMIYAVMRR | soluble
MKKWLLAAGLGLALATSAQAADKIAIVNMGSLFQQVAQKTGVSNTLENEFKGRASELQRMETDLQAKMKKLQSMKAGSDRTKLEKDVMAQRQTFAQKAQAFEQDRARRSNEERGKLVTRIQTAVKSVANSQDIDLVVDANAVAYNSSDVKDITADVLKQVK | soluble
DEEPMHYGNIMYDRRVIRGNTYALQTGPLLGRPDSLELQRQREARKRALARKQAQEQLRPQTPEPVEGRKHVDVQTELYLEEIADRIIEVDMECQTDAFLDRPPTPLFIPAKTGKDVATQILEGELFDFDLEVKPVLEVLVGKTIEQSLLEVMEEEELANLRASQREYEELRNSERAEVQRLEEQERRHREEKERRKKQQWEIMHKHNETSQKIAARAFAQRYLADLLPSVFGSLRDSGYFYDPIERDIEIGFLPWLMNEVEKTMEYSMVGRTVLDMLIREVVEKRLCMYE | not soluble
